How the values were obtained:
[1] = biological target: DENV-1 VLP mutant E311K (Dengue virus serotype 1 strain (56)BC94/95; C-terminal 20% Japanese encephalitis virus)
[2] = biological target: DENV-1 VLP mutant K310DE311KP364Q (Dengue virus serotype 1 strain (56)BC94/95; C-terminal 20% Japanese encephalitis virus)
[3] = biological target: DENV-1 VLP mutant G106R (Dengue virus serotype 1 strain (56)BC94/95; C-terminal 20% Japanese encephalitis virus)
[4] = biological target: DENV-1 VLP mutant G106RL107D (Dengue virus serotype 1 strain (56)BC94/95; C-terminal 20% Japanese encephalitis virus)
[5] = biological target: DENV-1 VLP mutant K310D (Dengue virus serotype 1 strain (56)BC94/95; C-terminal 20% Japanese encephalitis virus)
[6] = biological target: DENV-1 VLP mutant L107D (Dengue virus serotype 1 strain (56)BC94/95; C-terminal 20% Japanese encephalitis virus)
[7] = biological target: DENV-1 VLP mutant P364Q (Dengue virus serotype 1 strain (56)BC94/95; C-terminal 20% Japanese encephalitis virus)
[8] = biological target: DENV-1 VLP mutant G106RL107DK310DE311KP364Q (pVD1-CRR VLP antigen) (Dengue virus serotype 1 strain (56)BC94/95; C-terminal 20% Japanese encephalitis virus)
[9] = biological target: DENV-2 virus (strain 16681) (Dengue virus serotype 2 strain 16681) (UniProt P29990); assay: cell-based or functional assay
[10] = biological target: DENV-1 virus (strain 56BC94/95) (Dengue virus serotype 1 strain 56BC94/95); assay: cell-based or functional assay
[11] = biological target: DENV-3 virus (strain 116RC1396) (Dengue virus serotype 3 strain 116RC1396); assay: cell-based or functional assay
[12] = biological target: DENV-4 virus (strain 130) (Dengue virus serotype 4 strain 130); assay: cell-based or functional assay

| Substance | percent of remaining reactivity compared to WT [1] [%] | percent of remaining reactivity compared to WT [2] [%] | percent of remaining reactivity compared to WT [3] [%] | percent of remaining reactivity compared to WT [4] [%] | percent of remaining reactivity compared to WT [5] [%] | percent of remaining reactivity compared to WT [6] [%] | percent of remaining reactivity compared to WT [7] [%] | percent of remaining reactivity compared to WT [8] [%] | Nt50 (µg/mL), FRµNT [9] [µg/mL] | Nt50 (µg/mL), FRµNT [10] [µg/mL] | Nt50 (µg/mL), FRµNT [11] [µg/mL] | Nt50 (µg/mL), FRµNT [12] [µg/mL] |
| --- | --- | --- | --- | --- | --- | --- | --- | --- | --- | --- | --- | --- |
| MAb 4G2 (antibody) | 100 | 100 | < 0.1 | < 0.1 | < 0.1 | < 0.1 | < 0.1 | < 0.1 | – | – | – | – |
| MAb 6B6C-1 (antibody) | 100 | 50 | 12.5 | 0.8 | 100 | 50 | 100 | 3 | – | – | – | – |
| MAb 3H5 (antibody) | – | – | – | – | – | – | – | – | 0.15 | > 20 | – | – |
| MAb 1A1D-2 (antibody) | 50 | < 0.8 | 25 | 100 | 1.5 | 100 | 100 | < 0.1 | 0.46 | 1.68 | 1.26 | > 20 |

From patent publication US20140286983A1
